Data set [1] can be described thus: Enzyme assay on microsomal preparations of S. cerevisiae expressing STORR fusion or modules, substrate (S)-reticuline. In kind it is biochemical. The source says: (§1) Genscript created synthetic DNA sequences were created for PsCPR [Genbank accession AAC05021, (Rosco A. et al. (1997) Arch. Biochem. Biophys. 348, 369-77), the full length STORR (CYP82Y2-Oxidoreductatse (“Oxired”)) protein, the N-terminal CYP82Y2 module and C-terminal oxidoreductase (Oxidoreductase) module, that were codon optimised for expression is Saccharomyces cerevisiae. The codon-optimized sequences are provided with the SEQ ID NO 30-33.
(§2) Expression vector pESC-TRP::soloxired was created by digesting the corresponding PCR product with NotI and PacI and inserting this behind the GAL10 promoter of pESC-TRP. pESC-TRP::CPR was created by digesting the corresponding PCR product with BamHI and XhoI and inserting this behind the GAL1 promoter of pESC-TRP. This was then used to created pESC-TRP::CPR::CYP82Y2 and pESC-TRP::CPR::CYP82Y2-Oxidoreductase. These plasmids were then transformed in S. cerevisiae G175 (Sorger D. et al. (2004) J. Biol. Chem. 279, 31190-6) using lithium acetate protocol (Geitz R. D. and Woods R. A. (2002) Methods in Enzymology 350, 87-96). Yeasts were cultivated in Synthetic Defined (SD) medium composed of 2% carbon source, 0.5% ammonium sulfate, 1.7 g L^−1 yeast nitrogen base (without amino acids and ammonium sulfate) and 1.92 g L^−1 or tryptophan drop-out supplement (Sigma-Aldrich, Gillingham, UK). Cultures grown using glucose as a carbon source were used to inoculate 200 ml cultures with raffinose as a carbon source to an OD 600 nm of 0.10 in 1 L conical flasks. […]
(§3) Enzymes assays were set up in 250 μL volumes containing final concentrations of 50 mM Bis-tris propane buffer, 1 mM NADPH and 100 μM of substrate. […] The extract was then dissolved in 100 μL of 50:50:0.1 hexane/ethanol/diethylamine and analysed by the chiral HPLC method to determine the relative amounts of (R)- and (S)-reticuline.
(§4) Poppy capsules were processed and analysed by UPLC-MS and R-scripts as previously described (“the standard method”; (Winzer T. et al. (2012) Science 336, 1704-8)). […]

A short description of data set [2]: Enzyme assay on soluble/microsomal preparations of S. cerevisiae expressing STORR fusion or modules, substrate 1,2-dehydroreticuline. The data set is classed as biochemical. To be noted: soluble or microsomal preparations from S. cerevisiae; 100 μM substrate, 1 mM NADPH, 37° C. 3 hours.
Source text: as §1, §2, §3, §4

B1: CYP82Y2 module: N-terminal CYP82Y2 module of STORR (codon optimized SEQ ID NO 32) expressed with opium poppy CPR redox partner in S. cerevisiae (protein)
chain: MELQYISYFQPTSSVVALLLALVSILSSVVVLRKTFLNNYSSSPASSTKTAVLSHQRQQSCALPISGLLHIFMNKNGLIHVTLGNMADKYGPIFSFPTGSHRTLVVSSWEMVKECFTGNNDTAFSNRPIPLAFKTIFYACGGIDSYGLSSVPYGKYWRELRKVCVHNLLSNQQLLKFRHLIISQVDTSFNKLYELCKNSEDNHGNYTTTTTTAAGMVRIDDWLAELSFNVIGRIVCGFQSGPKTGAPSRVEQFKEAINEASYFMSTSPVSDNVPMLGWIDQLTGLTRNMKHCGKKLDLVVESIINDHRQKRRFSRTKGGDEKDDEQDDFIDICLSIMEQPQLPGNNNPSQIPIKSIVLDMIGGGTDTTKLTTIWTLSLLLNNPHVLDKAKQEVDAHFRTKRRSTNDAAAAVVDFDDIRNLVYIQAIIKESMRLYPASPVVERLSGEDCVVGGFHVPAGTRLWANVWKMQRDPKVWDDPLVFRPDRFLSDEQKMVDVRGQNYELLPFGAGRRVCPGVSFSLDLMQLVLTRLILEFEMKSPSGKVDMTATPGLMSYKVIPLDILLTHRRIKPCVQSAASERD
modifications: co-expressed with poppy CPR in yeast; Yeast codon optimized CYP82Y2
As for B1, the “conversion of (S)-reticuline to 1,2-dehydroreticuline” value in data set [1] (microsomal preparations from S. cerevisiae, with CPR redox partner, 100 μM substrate, 37° C. 3 hours) is on record as roughly 100%. Further, the “conversion efficiency of 1,2-dehydroreticuline to (R)-reticuline” value in data set [2] is “not”.

B2: STORR fusion: Full length CYP82Y2-oxidoreductase fusion protein (SEQ ID NO 1; codon optimized SEQ ID NO 31) expressed with PsCPR in S. cerevisiae (protein, listed as Papaver somniferum)
chain: MELQYISYFQPTSSVVALLLALVSILSSVVVLRKTFLNNYSSSPASSTKTAVLSHQRQQSCALPISGLLHIFMNKNGLIHVTLGNMADKYGPIFSFPTGSHRTLVVSSWEMVKECFTGNNDTAFSNRPIPLAFKTIFYACGGIDSYGLSSVPYGKYWRELRKVCVHNLLSNQQLLKFRHLIISQVDTSFNKLYELCKNSEDNHGNYTTTTTTAAGMVRIDDWLAELSFNVIGRIVCGFQSGPKTGAPSRVEQFKEAINEASYFMSTSPVSDNVPMLGWIDQLTGLTRNMKHCGKKLDLVVESIINDHRQKRRFSRTKGGDEKDDEQDDFIDICLSIMEQPQLPGNNNPSQIPIKSIVLDMIGGGTDTTKLTTIWTLSLLLNNPHVLDKAKQEVDAHFRTKRRSTNDAAAAVVDFDDIRNLVYIQAIIKESMRLYPASPVVERLSGEDCVVGGFHVPAGTRLWANVWKMQRDPKVWDDPLVFRPDRFLSDEQKMVDVRGQNYELLPFGAGRRVCPGVSFSLDLMQLVLTRLILEFEMKSPSGKVDMTATPGLMSYKVIPLDILLTHRRIKPCVQSAASERDMESSGVPVITLGSGKVMPVLGMGTFEKVGKGSERERLAILKAIEVGYRYFDTAAAYETEEVLGEAIAEALQLGLVKSRDELFISSMLWCTDAHADRVLLALQNSLRNLKLEYVDLYMLPFPASLKPGKITMDIPEEDICRMDYRSVWAAMEECQNLGFTKSIGVSNFSCKKLQELMATANIPPAVNQVEMSPAFQQKKLREYCNANNILVSAISVLGSNGTPWGSNAVLGSEVLKKIAMAKGKSVAQVSMRWVYEQGASLVVKSFSEERLRENLNIFDWELTKEDHEKIGEIPQCRILSAYFLVSPNGPFKSQEELWDDEA
modifications: co-expressed with PsCPR
Regarding B2, the “accumulation of 1,2-dehydroreticuline during conversion of (S)- to (R)-reticuline” value in data set [1] (microsomal fractions harboring the fusion protein) was “no detectable accumulation”. In addition, the “added (S)-reticuline converted to (R)-reticuline” value in data set [1] (microsomal preparations from S. cerevisiae, with CPR, 100 μM substrate, 37° C. 3 hours) is reported as “about 20%”. For the same molecule, the “conversion efficiency of 1,2-dehydroreticuline to (R)-reticuline” value in data set [2] amounted to 100%.

For the origin of these results see patent publication US10006010B2, “Cytochrome P450 fusion protein” (The University of York, priority 2014, dated 2018).
